Conditions in all cases: protein: recombinant; tags: N-terminal His6-TEV, removed; chain copies: 4; label: fluorescein
The target in one data set is EcSSB d2G (Escherichia coli, UniProt P0AGE0 1-113+131-178, internal_change). In words: fluorescence polarization; n = 1.8; 20 mM Tris-acetate pH 8, 50 mM K-glutamate, 10 mM Mg-acetate, 25 C; 10 nM labeled oligo, SSB concentrations as tetramers. For orientation: Polarisation of emitted light reports the rotation of a fluorescent probe.
The target in the next data set is EcSSB R116D-W136D (Escherichia coli, UniProt P0AGE0 1-178, R116D;W136D). The data set is described as above.
A further data set concerns the target EcSSB WT (Escherichia coli, UniProt P0AGE0 1-178). In words: fluorescence polarization; n = 1.7; 20 mM Tris-acetate pH 8, 50 mM K-glutamate, 10 mM Mg-acetate, 25 C; 10 nM labeled oligo, SSB concentrations as tetramers.
A further data set concerns the target EcSSB W136D (Escherichia coli, UniProt P0AGE0 1-178, W136D). The data set is described as above.
For the next data set, the target named is EcSSB d1G (Escherichia coli, UniProt P0AGE0 1-113+121-178, internal_change). The data set is described as follows: fluorescence polarization; n = 2.2; 20 mM Tris-acetate pH 8, 50 mM K-glutamate, 10 mM Mg-acetate, 25 C; 10 nM labeled oligo, SSB concentrations as tetramers.

B1: dT79 (ssDNA)
DNA: TTTTTTTTTTTTTTTTTTTTTTTTTTTTTTTTTTTTTTTTTTTTTTTTTTTTTTTTTTTTTTTTTTTTTTTTTTTTTTT
For orientation: Kd means the equilibrium constant for the complex coming apart. In the case of B1, the Kd in the data set with EcSSB d2G is 11 ± 2.5 nM; with EcSSB R116D-W136D, under 10 nM; with EcSSB WT, under 10 nM; with EcSSB W136D, under 10 nM; in the data set with EcSSB d1G, 11 ± 2.6 nM.
